Results on eight molecules are retold here after patent US20250206828A1, “ANTI-ADENOSINE RECEPTOR (A2aR) ANTIBODIES AND THE USE THEREOF” (Adept Therapeutics Inc., priority 2022, published 2025).

B1: Hu3F6-H1/Hu3F6-L8 (antibody, human IgG1, V domains shown)
VH: QVQLVQSGAEVKKPGASVKVSCKASGFAFTSYWMNWVRQAPGQGLEWMGRIDPSDSEAHYHHKFWGRVTMTRDTSTSTVYMELSSLRSEDTAVYYCLRSLYGKGDYWGHGTTVTVSS
VL: DVVMTQSPLSLPVTPGEPASISCRSSQSLVHRNGNTYLEWYLQKPGQSPQLLIYKVSNRFSGVPDRFSGSGSGTDFTLKISRVEAEDVGVYYCYQGSHVPLTFGGGTKVEIK
notes: Human IgG1 FES (L234F, L235E, P331S) and human Ig kappa constant domains
B2: Hu3F6-H6/Hu3F6-L8 (antibody, human IgG1, V domains shown)
VH: EVQLVQSGAEVKKPGESLRISCKASGFAFTSYWMNWVRQMPGKGLEWIGRIDPSDSEAHYHHKFWGHATLSVDKSSSTVYLQWSSLKASDTAMYYCLRSLYGKGDYWGHGTTVTVSS
VL: DVVMTQSPLSLPVTPGEPASISCRSSQSLVHRNGNTYLEWYLQKPGQSPQLLIYKVSNRFSGVPDRFSGSGSGTDFTLKISRVEAEDVGVYYCYQGSHVPLTFGGGTKVEIK
notes: as for B1
B3: Hu3F6-H6/Hu3F6-L3 (antibody, human IgG1, V domains shown)
VH: EVQLVQSGAEVKKPGESLRISCKASGFAFTSYWMNWVRQMPGKGLEWIGRIDPSDSEAHYHHKFWGHATLSVDKSSSTVYLQWSSLKASDTAMYYCLRSLYGKGDYWGHGTTVTVSS
VL: DVVMTQSPLSLPVTLGQPASISCRSSQSLVHRNGNTYLEWYQQRPGQSPRLLIYKVSNRFSGVPDRFSGSGSGTDFTLKISRVEAEDVGVYYCYQGSHVPLTFGGGTKVEIK
notes: as for B1
B4: Hu3F6-H6/Hu3F6-L1 (antibody, human IgG1, V domains shown)
VH: EVQLVQSGAEVKKPGESLRISCKASGFAFTSYWMNWVRQMPGKGLEWIGRIDPSDSEAHYHHKFWGHATLSVDKSSSTVYLQWSSLKASDTAMYYCLRSLYGKGDYWGHGTTVTVSS
VL: DVVMTQSPLSLPVTLGQPASISCRSSQSLVHRNGNTYLEWFQQRPGQSPRRLIYKVSNRFSGVPDRFSGSGSGTDFTLKISRVEAEDVGVYYCYQGSHVPLTFGGGTKVEIK
notes: as for B1
B5: Hu3F6-H6/Hu3F6-L5 (antibody, human IgG1, V domains shown)
VH: EVQLVQSGAEVKKPGESLRISCKASGFAFTSYWMNWVRQMPGKGLEWIGRIDPSDSEAHYHHKFWGHATLSVDKSSSTVYLQWSSLKASDTAMYYCLRSLYGKGDYWGHGTTVTVSS
VL: DVVMTQTPLSLSVTPGQPASISCRSSQSLVHRNGNTYLEWYLQKPGQSPQLLIYKVSNRFSGVPDRFSGSGSGTDFTLKISRVEAEDVGVYYCYQGSHVPLTFGGGTKVEIK
notes: as for B1
B6: Hu3F6-H6/Hu3F6-L2 (antibody, human IgG1, V domains shown)
VH: EVQLVQSGAEVKKPGESLRISCKASGFAFTSYWMNWVRQMPGKGLEWIGRIDPSDSEAHYHHKFWGHATLSVDKSSSTVYLQWSSLKASDTAMYYCLRSLYGKGDYWGHGTTVTVSS
VL: DVVMTQSPLSLPVTLGQPASISCRSSQSLVHRNGNTYLEWYQQRPGQSPRRLIYKVSNRFSGVPDRFSGSGSGTDFTLKISRVEAEDVGVYYCYQGSHVPLTFGGGTKVEIK
notes: as for B1
B7: Hu3F6-H4/Hu3F6-L8 (antibody, human IgG1, V domains shown)
VH: EVQLVQSGAEVKKPGASVKVSCKTSGFAFTSYWMNWVRQAPGQGLEWIGRIDPSDSEAHYHHKFWGRATLTVDKSSSTVYMELSSLRSEDTAVYYCLRSLYGKGDYWGHGTTVTVSS
VL: DVVMTQSPLSLPVTPGEPASISCRSSQSLVHRNGNTYLEWYLQKPGQSPQLLIYKVSNRFSGVPDRFSGSGSGTDFTLKISRVEAEDVGVYYCYQGSHVPLTFGGGTKVEIK
notes: as for B1
B8: Hu3F6-H6/Hu3F6-L4 (antibody, human IgG1, V domains shown)
VH: EVQLVQSGAEVKKPGESLRISCKASGFAFTSYWMNWVRQMPGKGLEWIGRIDPSDSEAHYHHKFWGHATLSVDKSSSTVYLQWSSLKASDTAMYYCLRSLYGKGDYWGHGTTVTVSS
VL: DIVMTQTPLSLSVTPGQPASISCRSSQSLVHRNGNTYLEWYLQKPGQSPQLLIYKVSNRFSGVPDRFSGSGSGTDFTLKISRVEAEDVGVYYCYQGSHVPLTFGGGTKVEIK
notes: as for B1

For this assay, the target named is T1, human adenosine A2A receptor (A2aR) (human, UniProt P29274 1-412).
T1 construct: Assays used HEK293 cells stably overexpressing human A2aR (BPS Bioscience 79381), human A2aR-expressing CHO cells, or endogenous A2aR on human PBMC; also called human A2aR; hA2aR
T1 sequence (P29274 whole entry): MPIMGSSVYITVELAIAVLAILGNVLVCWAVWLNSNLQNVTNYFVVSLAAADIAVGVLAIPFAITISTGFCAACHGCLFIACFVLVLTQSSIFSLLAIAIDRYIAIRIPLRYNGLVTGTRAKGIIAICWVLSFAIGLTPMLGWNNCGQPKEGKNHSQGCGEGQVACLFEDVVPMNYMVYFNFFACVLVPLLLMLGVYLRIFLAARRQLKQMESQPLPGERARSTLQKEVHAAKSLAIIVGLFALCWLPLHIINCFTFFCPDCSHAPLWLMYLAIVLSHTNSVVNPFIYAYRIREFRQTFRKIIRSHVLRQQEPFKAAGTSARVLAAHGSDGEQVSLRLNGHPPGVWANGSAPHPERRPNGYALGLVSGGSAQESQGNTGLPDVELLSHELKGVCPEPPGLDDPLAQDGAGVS
The assay is described as follows: flow cytometry, HEK293-hA2aR cells, supernatant 1 ug/ml. Background: Flow cytometry measures light scatter and fluorescence of single cells or particles in a stream.
B1 had an MFI of 1420 MFI.
Molecule B2 came in with an MFI of 2000 MFI.
B3 had an MFI of 2090 MFI.
In turn, B4 yielded an MFI of 27 MFI.
Turning to B5, the MFI turned out to be 1980 MFI.
In turn, B6 came in with an MFI of 17 MFI.
The molecule B7 showed an MFI of 1710 MFI.
For B8, the MFI came to 2000 MFI.
